Measured values taken from patent publication US20260125460A1 (Eli Lilly, published 2026).

Key:
cynomolgus monkey IL-34 [1] = biological target: T1, cynomolgus monkey IL-34 (cynomolgus monkey, UniProt G7Q1L3 21-242); assay: competition ELISA; displacement of biotinylated cyno IL-34 from plate-bound cynomolgus CSF1R ECD-Fc
T1 construct: Biotinylated in the displacement ELISA; also called cyno IL-34
T1 sequence: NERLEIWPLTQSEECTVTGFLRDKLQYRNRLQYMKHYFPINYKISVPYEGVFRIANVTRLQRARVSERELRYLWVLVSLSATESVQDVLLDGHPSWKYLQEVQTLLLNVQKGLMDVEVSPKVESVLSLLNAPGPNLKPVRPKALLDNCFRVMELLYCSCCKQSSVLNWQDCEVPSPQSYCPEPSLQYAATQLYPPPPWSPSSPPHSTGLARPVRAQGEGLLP
Protocol: (§1) CSF1R extracellular domain proteins (hCSF1R_Fc commercially available from R&D Cat #329-MR, cynomolgus CSF1R ECD-Fc (AAA is a linker between CSF1R extracellular domain and Fc) (SEQ ID NO: 34)) can be bound to an ELISA plate at concentrations of 30 nM in order to capture soluble biotinylated IL-34 and allowed to bind for one hour. After washing and blocking plate, biotinylated IL-34 may be added, then detected via streptavidin conjugated peroxidase. Concentrations of labeled IL-34 near the 80% binding level (EC₈₀) (3.7 nM) may be used in conjunction with a range of antibody concentrations (0-100 nM) to determine concentration of antibody required to displace IL-34 from CSF1R. After 1 hr incubation, IL-34 bound to CSF1R is detected via streptavidin conjugated peroxidase. The antibodies are assayed (n=2) and the average and standard deviation at each concentration are calculated. The potency of an antibody to displace IL-34 from CSF1R is reported as IC₅₀ (nM) with the calculated confidence interval (CI) in Table 4 and Table 5.

human IL-34 [2] = biological target: T2, human IL-34 (human, UniProt Q6ZMJ4 21-242); assay: cell-based or functional assay
T2 sequence: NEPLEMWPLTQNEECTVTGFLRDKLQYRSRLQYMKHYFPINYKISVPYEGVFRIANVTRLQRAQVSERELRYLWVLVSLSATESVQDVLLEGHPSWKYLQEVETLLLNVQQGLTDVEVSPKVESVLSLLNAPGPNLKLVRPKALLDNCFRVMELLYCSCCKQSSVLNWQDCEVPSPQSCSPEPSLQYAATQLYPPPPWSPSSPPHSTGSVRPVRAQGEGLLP

human IL-34 [3] = biological target: T2, human IL-34; assay: SPR, BIAcore 8K, 37 C; antibody captured on Protein A chip, IL-34 in flow; 1:1 fit; average of at least three experiments
Protocol: (§2) Binding affinity of anti-IL-34 monoclonal antibodies of the present disclosure to human and/or cynomolgus monkey (cyno) IL-34 may be determined by methods known in the art. […] For each cycle, 200 μL IL-34 is flowed over the immobilized antibody at 100 μL/minute, and then dissociated for 20 minutes. The chip surface is regenerated with 50 μL of glycine buffer at pH 1.5 at a flow rate of 100 μL/minute. The data are fit to a 1:1 Langmiur binding mode to derive kon, koff and to calculate KD.

cynomolgus monkey IL-34 [4] = biological target: T1, cynomolgus monkey IL-34; assay: as above
Protocol: as §2

human IL-34 [5] = biological target: T2, human IL-34; assay: competition ELISA; displacement of biotinylated human IL-34 (3.7 nM) from plate-bound hCSF1R_Fc
Protocol: as §1

IC50 (cynomolgus monkey IL-34 [1]): 1.41 nM
IC50 (ug/ml), neutralization of human IL-34 (100 ng/ml) induced luciferase reporter activity in hCSF1R expressing 293 SRE cells (human IL-34 [2]): 0.0533 µg/mL
Kd (human IL-34 [3]): 0.0338 nM
koff (human IL-34 [3]): 0.00019 s⁻¹
kon (human IL-34 [3]): 5.6e+06 M⁻¹ s⁻¹
Kd (cynomolgus monkey IL-34 [4]): 0.039 nM
koff (cynomolgus monkey IL-34 [4]): 0.00031 s⁻¹
kon (cynomolgus monkey IL-34 [4]): 8.1e+06 M⁻¹ s⁻¹
IC50 (human IL-34 [5]): 0.0657 nM
B1: Antibody 1 (antibody, human IgG4 S228P, kappa, F234A L235A, V domains shown)
VH: EVQLLESGGGLVQPGGSLRLSCAASGFAFSNYAMSWVRQAPGKGLEWVSAISASGGKTYYADSVKGRFTISRDNSKNTLYLQMNSLRAEDTAVYYCAKRGYLWHAFDHWGRGTLVTVSS
VL: EIVLTQSPGTLSLSPGERATLSCRASQSVYSSYLAWYQQKPGQAPRLLIYGASSRATGIPDRFSGSGSGTDFTLTISRLEPEDFAVYYCQVVGSSPPFTFGGGTKVEIKR
notes: Human anti-human IL-34 antibody; IgG4 PAA hinge/Fc without the C-terminal lysine; also called Exemplified Antibody 1; exemplified antibody 1
